Data reported in the nanobody polyreactivity screen of Harvey et al. (2022).

Assay: yeast display, Sf9 membrane polyspecificity reagent, FACS + sequencing; frameworks hold sequencing errors
Outline: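 Genes from sorted yeast were amplified by colony PCR, read by MiSeq 2 × 250 sequencing and filtered on CDR length. These cells carried a synthetic nanobody library in Saccharomyces cerevisiae BJ5465 and were sorted by FACS into low and high (top ~1%) gates on anti-HA and streptavidin fluorescence. Polyreactivity is labelled according to the gate of origin.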

Sequence	polyreactivity (PSR sort gate)
HVQLVESAGGLFQEGGSLRVSCAASGGTLNTYAMGRYRQAPGKDREFVSAITTSGASTYYADSVKGRFTISRDNAKNTVYLQMNSLKPEDSAVYYCYCDYWGQGTQVTVSS	low polyreactivity
QVQLVESGGGLVQAGGSLRLSCAASGSTFDYYTMGWYRPAPGKERELVAAISSSGGSTYYADSVKGRFTISRDYAKNTVYLQMNSLKPEDTAVYYCAADPSPYGDEYDYWGQGTQVTVSS	low polyreactivity
QVQLVESGGGLVQAGGSLRLTCAASGSNFWSYDMGWYRQAPGKERELVATITSGDSTYYADSVKGRFTISRDNAKNTVYLQMYSLKPEDTAVYYCAAGTYYRRPYWHRDYDYWGQGTQVTVSS	low polyreactivity
QVQRVESGGGLVQAGGSLRLSCAASGRIFSANAMGWYRQAPGKERELVATISTGGGRTYYADSVKGRFTISRDNAKNTVYLQMNSLKPEDTAVYYCNATRNYARVRYYYWGQGTQVTVSS	high polyreactivity
QVQLVESGGGLVQAGGSLRLSCAASGSNFVLYAMGWYRQAPGKESELVAAISSSGGSTYADSVKGRFTISRDNAKNTVYLQMNSLKPEDTAVYYCARDVYLSDPPRDYDYWGQGTQVTVSS	low polyreactivity
QVQLVESGGGLVQAGGSLRLSCAASGSTFVDNAMGWYRQAPGKERELVADITWSGGSTYYADSVKGRFTISRDNAKNTVYLQMNSLKPEDTAVYYCAKVPKSRGYVGGMDYWGQGTQVTVSS	low polyreactivity
QVQLVESGGGLDQAGGSLRLSCAPSGSTFVGYALGWYRQAPGKERELVAAITRGGGSTYYADSVKGRFTISRDNAKNTVYLQMNSLKPEDTAVYYCAAYQHPGLRTSYEYWGQGTQVTVSS	low polyreactivity
QVQLVESGGGLVQAGGSLRLSCAASGRTFYRYAMGWYRQAPGKERELVAVISGRGGGTYYADSVKGRFTISRDNAKNTVYLQMNSLKPEDTAVYYCAKEYWGVTPTYYYWGQGTQVTVSS	high polyreactivity
QVQLVESGGGLVQAGGSLRLSCAASGIIFYIYAMGWYRQAPGKERELVAGISWRGGSTSYADSVKGRFTISRDNAKNTVYLQMNSLKPEDTAVYYCAAEVYSWDGYDYWGQGTQVTVSS	low polyreactivity
QVQLVESGGGLVQAGGSLRLSCAASGFTFTRYAMGWYRQAPGKERELVATITKRGGSTYYADSVKGRFTISRDNAKNTVYLQMNSLKPEDTAVYYCAADGASRALYDYWGQGTQVTLSS	high polyreactivity
QVQLVESGGGLVQAGGSLRLSCAASGSIFGSYAMGWYRQAPGKERELVAAITSGGSTHYADSVKGRFTISRDNAKNTVYLQMNSLKPEDTAVYYCNAQALRLFWRYDYWGLGTQVTVSS	low polyreactivity
QVQLVESGGGLVQAGGSLRLSWAASGLTFETYVMGWYRQAPGKERELVAAISSSGRTYYADSVKGRFTISRDNAKNTVYLQMNSLKPEDTAVYYCAARGREFGYWGQGTQVTVSS	high polyreactivity
QVQLVESGGGLVQAGGSLRLSCASSGRTFRPYAKGWYRPAPGKDRELVAAITGGTRTYYADSVKGRFTISRDNAKNTVYLQMNSLKPEDTAGYYCAKGDFFSKHDYWGQGTQVTVSS	low polyreactivity
QVQLVESGGGLVQAGGSLRLSCAASGSIFSYYAMGWYRPAPGKERELVAAISWSGGSTYYADSVKGRFTISRDNAKNTVSLQMNSLIPADTAVYYCAAGVTYEKQTKYYYWGQGTQVTVSS	high polyreactivity
QVQLVDSGGGLVQAGGSLRLSCAASGLTFYSNAMGWYRQAPGKEREFVASITRRTGITFYAVSVKGRFTISRDNAKNTVYLQMNSLKPYDTAVYYCATRGGYPKGYGYLAFNYWGQGTQVTVSS	high polyreactivity
QVQLVESGGGLVQAGGSLRLSGAASGSTFQYYAMGWYRQAPGKERELVAAISDGTNTNYADSVKGRFTISRDNAKNTVYLQMNSLKPEDTAVYYCAARFSSIVKYVGIGTDEYDYWGQGTQVTVSS	low polyreactivity
QVQLVESGGGLVQAGGSLRLSCAASGRTFGAYTMRWYRQAPGTERELVAAINRSGGDTYYADSVKGRFTISRDTAKNTVYLQMNSLKPEDNAVYYCNAEPRYGTYDYWGQGTQVTVSS	low polyreactivity
QVQLVESGGGLVQAGGSLRLSCAASGRIFVQNAMGWYRQAPGKERELVAAISISGARTYYADSVKGRFTISRDNAKNSDYLQMNRLKPEDTAVYYCNASYRDEDDYWGQGTQVTVSS	high polyreactivity
QVQLVESGGGLVQAGGSLRLSCAASGFTFYGYAMGWYRQAPGKERELVAGITSSGGSTHYADSVKGRFTISRDNAKNTVYLQMNSLKPEDTAVYYCAKVWSFPSNYRAYYYWGQGTQVTVSS	high polyreactivity
QVQLQESGGGLVQAGGSLRLSCAASGSIFTQATMGWYRQAPGKERELVAAINFGSSTYYADSVKGRFTISRDNAKSTVYLQMNSLKPEDTAVYYCAVRALWYDFHDYWGQGTQVTVSS	high polyreactivity
QVQLVESGGGLVQARGSLRLSCAAYRITFGWYAMGWYRQAHAKERELVASISSSGSTNYADSVKGRFTISRDNAKNTVYLQMNSLKPEDTAVYYCNKDYRRRHYYIYVIEGDYWGQGTQVTVSS	low polyreactivity
QVQLVESGGGLVQAGGRLRLSCAAYGSIFDFYAMGWYRQAPGKERELVAAISGSGGSTYYADSVKGRFTISRDNAKNTVYLQMNSLKPEDTEVYYCSYYYWGQGTQETVSS	low polyreactivity

Sequence	polyreactivity (PSR sort gate)
QVQLVESGGGLVQAGGSLRLSCAASGSIFPYYAMGWYRQAPGKERELVATISSGGSTFYADSVKGRFTISRDNAKKTVYLQMNSLKPEDTAVYYCAADIWYFDYDYWGQGTQVTVSS	high polyreactivity
QVQLVESRGALVQAGGSLRLSCAATGSSFNRYAMRWYRQAPRKERELVAAISSGRTTNYADSVKGRFTISRDNAKNTVYLQMNSLKPEDTAVYYCNRKFRYSSHTNYYYWGQGTQVTVSS	high polyreactivity
QVQLVESGGGLVQAGGSLRLSCAASGSIFTYYAMGWYRQAPGKERELVAAISRRGTRTYYADSVKGRFTISRDNAKNTVYLQMNSLKPEDTAVYYCAAEYTETGTAKMEYWGQGTQVTVSS	high polyreactivity
QVQLVESGGGLVQAGGSLRLSCAASGYIFTEYAMGWYRQAPGKERELVAAIDWSGGSTYYADSVKGRFTISRDNAKNTVYLQMNSLKPEDTAVYYCAKYYYTSIVGYDSWGQGTQVTVSS	low polyreactivity
QVHLVESGGGLLQAGGSLRLSCAASGFTFFVNAMGWYRQAPGKERELVAAISIRSGGRTYYADSVKGRFTISRENAKNTVYLQMNSLKPEDTAVYYCAAESSRPEHTFHYYRFLFDYWGQGTQVTVSS	low polyreactivity
QVQLVESGGGLVQAGGSLRLSCAASGGTFKYYDMGWYRQAPGKEREFVAAISKRVSSTYYADSVKGRFTISRDNAKNTVYLQMNSLKPEDTAVYYCAAYPVRYYNQYDYWGQGTQVTVSS	low polyreactivity
QVQLVESGGGLVQAGGSLRLSCAASGIIFDGYAMGWYRQAPGKERELVAAISRRGGSTYYADSVKGRFTISRDNAKNTVYLQMNSLKPEDTAVYYCAAEYVYWRIGQYDYWGQGTQVTVSS	high polyreactivity
QVQLVESGGGLVQAGGSLRLSCAASGRIDRPYAMGLYRPAPGKERELVAAISRRGGSTYYADSVKGRFTISRDNAKNTVYLQMKSLKPEDTAVYYCAADYWYESLRLQGIQGLDYWGQGTQVTVSS	high polyreactivity
QVQLVESGGGLVQAGGSLRLSCAASGSIFRRYAMGWYRQAPGKEREFVAAITRSGGGTYYADSVKGRFTISRDNAKNTVYLQMNSLKPEDTAVYYCAKDVFVQRSRYPEGDYWGQGTQVTVSS	high polyreactivity
QVQLEESGGGLVQAGGSLRLSCAASGRTFGYYAMGWYRQAPGKERELVAAISTRSGSTYYADSVKGRFTISRDNAKNTVYLQMISLKPEDTAVYYCAADSYPDYDYWGQGTQVTVSS	low polyreactivity
QVQLVESGGGLVQAGGSLRLSCAASGSTFRRYAMGSYRQAPGKERELVAAISVSGGRTSYADSVKGRFTISRDNAKNTVYLQMNSLKPEDTAVYYCNADYYKRMDYWGQGTKVTVSS	high polyreactivity
QVQLVESGGGLVQAGGSLRLSCAASGSIFYYYAMGWYRQAPGKERELVAAITRSGNTYYADSVKGRFTISRDNAKNTVYLQMNSLKPEDTAVYYCAAEYGGGYGWGQGTQVTVSS	high polyreactivity
QVQLVESGGGLVQAGGSLRLSCAASGRIFGGYAMGWYRQAPGKERELVASITGGGTTDYADSVKGRFTISRDNAKNTVYLQMNSLKPEDTAVYNCAIRTHQFGVSRSYNTYYYWGQGTQVTVSS	low polyreactivity
QVQLVESDGGLVQAGGSLRLSCAASGYIFGGYAMRWYRHAPGKERELVAAISYGVGSTYYADSVKGRFTISRDNAKNTVYLQMNSLKPEDTAVYYCAADVFFYVYEAYLLYYWGQGTQVTVSS	low polyreactivity
QVQLVESGGGLVQAGGSLRLSCAASGSTFETYAMGWYRQAPGKERELVAVITSDGSTNYADSVKGRFTISRDNAKNTVYLQMNSLKPEDTAGYYCNADYGFYVPAYPIYWIYEYWGQGTQVTVSS	low polyreactivity
QVQLVESGGGLVQAGGSLRLSCAASGSTIQQYAMGWYRQAPGKEREFVAAISWRGGRTYYADSVKGRFTISRDNAKNTVSLQMNSLKPEDTAVYYCAVDPSIYRLSAYYYDYWGQGTQVTVSS	low polyreactivity
QVLLVESGGGLVQSGRSLRLSCAASGLIFSRYAMGWYRPAPGKERELVAAITSGTSTYYADSVKGRFTISRDNAKNTVYLQLNSLIPEDTAVYYCAARWLTFNARYYPYYYWGQGTQVTVSS	high polyreactivity
QVQLVESGGGLVQAGGSLRLSCAASGSIFDIYAKGRSRQAPGKERELVAAISSGGSTTYADSVKGRFTISRDNAKNTVYFQMNCLTPEDTAVYYCATAYTPFAYLVTEMDYWGQGTQVTVLS	low polyreactivity
QVQLVESGGGLVQAGGSLRLSCAASGFIFYSNAMGWYRQAPGKERELVAAISRGGGSTYYADSVKGRFTISRDNAKNTVYLQMNSLKPEDTAVYYCAAELYRWYYYWGQGTQVTVSS	high polyreactivity
QVQLVESGGGLVQAGGSLRLSCAASGFTFSFYAIGWYRQAPGKERELVAAINYSGGRTYYADSVKGRFTISRDNAKNTVYLQMNSLKPEDTAVYYCAVHIPSVSGVTDYYYWGQGSQVTVSS	high polyreactivity
QVQLVESGGGLVQAGGSLRLSCAASGSIFGGYAMGWYRQAPGKERELVATSYADSVKGRFTISRDIAKNTVYLQMNSLKPEDTAVYYCAADPPLEGVHGYNYWGQGTQVTVSS	low polyreactivity
